{
  "source": "paper PMC8899190",
  "about": "(2022)",
  "test_in_all_cases": "BLI",
  "key": {"[1]": {"target": "T1, Avi-tagged, biotinylated h14-3-3ß_(nY130) (human, UniProt P31946 1-246, 3-nitrotyrosine at 130; biotin on the N-terminal Avi tag)", "T1 chain": "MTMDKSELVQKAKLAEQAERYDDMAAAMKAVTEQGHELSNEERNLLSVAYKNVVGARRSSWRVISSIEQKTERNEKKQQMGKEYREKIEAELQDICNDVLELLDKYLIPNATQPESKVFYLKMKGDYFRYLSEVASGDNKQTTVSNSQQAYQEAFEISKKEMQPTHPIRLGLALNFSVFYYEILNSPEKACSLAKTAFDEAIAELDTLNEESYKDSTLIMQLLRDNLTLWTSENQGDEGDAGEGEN"}, "[2]": {"target": "T2, Avi-tagged, biotinylated h14-3-3ß_(nY213) (human, UniProt P31946 1-246, 3-nitrotyrosine at 213; biotin on the N-terminal Avi tag)", "T2 chain": "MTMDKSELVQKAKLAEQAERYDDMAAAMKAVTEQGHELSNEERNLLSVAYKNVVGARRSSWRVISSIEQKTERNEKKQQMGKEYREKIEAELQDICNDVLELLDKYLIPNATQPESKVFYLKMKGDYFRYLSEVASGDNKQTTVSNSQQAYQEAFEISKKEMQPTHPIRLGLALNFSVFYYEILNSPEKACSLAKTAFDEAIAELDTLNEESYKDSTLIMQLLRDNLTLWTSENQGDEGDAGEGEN"}, "[3]": {"target": "T3, Avi-tagged, biotinylated h14-3-3ß WT (human, UniProt P31946 1-239, biotin on the N-terminal Avi tag)", "T3 chain": "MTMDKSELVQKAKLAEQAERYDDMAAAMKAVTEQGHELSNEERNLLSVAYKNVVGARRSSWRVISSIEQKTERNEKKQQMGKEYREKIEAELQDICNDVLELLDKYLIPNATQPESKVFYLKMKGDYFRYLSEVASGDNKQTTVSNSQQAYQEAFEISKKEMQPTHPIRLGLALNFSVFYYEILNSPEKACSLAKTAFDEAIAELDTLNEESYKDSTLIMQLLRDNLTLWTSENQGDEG"}},
  "data": [
    {"binder": "Nb-G5 (C115S) (VHH) VHH: QVQLQESGGGLVQPGGSLRLSCAASKNIANFDSMAWYRRSPGKERDLVARLYSDGGTNYEDSVKGRFNISTDIEKNTVYLQMNNLKLEDTARYYCRADLGLFDTSEFPGQGTQVTVSS", "values": [
      {"measurement": "Kd", "setting": "[1]", "value": 100, "unit": "nM"},
      {"measurement": "Kd", "setting": "[2]", "value": 104, "unit": "nM"},
      {"measurement": "Kd", "setting": "[3]", "value": 91, "unit": "nM"}
    ]}
  ]
}
